# Experimental data from patent publication US20150368309A1 (SHIRE HUMAN GENETIC THERAPIES, published 2015).
# B1: Human sFlt-1 (Abcam, Cat#54346), without Fc fusion (receptor, UniProt P17948-2 27-687, looked up)
# chain: SKLKDPELSLKGTQHIMQAGQTLHLQCRGEAAHKWSLPEMVSKESERLSITKSACGRNGKQFCSTLTLNTAQANHTGFYSCKYLAVPTSKKKETESAIYIFISDTGRPFVEMYSEIPEIIHMTEGRELVIPCRVTSPNITVTLKKFPLDTLIPDGKRIIWDSRKGFIISNATYKEIGLLTCEATVNGHLYKTNYLTHRQTNTIIDVQISTPRPVKLLRGHTLVLNCTATTPLNTRVQMTWSYPDEKNKRASVRRRIDQSNSHANIFYSVLTIDKMQNKDKGLYTCRVRSGPSFKSVNTSVHIYDKAFITVKHRKQQVLETVAGKRSYRLSMKVKAFPSPEVVWLKDGLPATEKSARYLTRGYSLIIKDVTEEDAGNYTILLSIKQSNVFKNLTATLIVNVKPQIYEKAVSSFPDPALYPLGSRQILTCTAYGIPQPTIKWFWHPCNHNHSEARCDFCSNNEESFILDADSNMGNRIESITQRMAIIEGKNKMASTLVVADSRISGIYICIASNKVGTVGRNISFYITDVPNGFHVNLEKMPTEGEDLKLSCTVNKFLYRDVTWILLRTVNNRTMHYSISKQKMAITKEHSITLNLTIMNVSLQDSGTYACRARNVYTGEEILQKKEITIRGEHCNKKAVFSRISKFKSTRNDCTTQSNVKH
# notes: also called hsFlt-1; commercial sFlt-1 that doesn't contain Fc fusion
# Molecular target: the molecule itself
# Experiment: DSS crosslinking, anti-Flt-1 Western blot
# Procedure: PLGF and sFlt-1 (Human sFlt-1:Abcam, Cat#54346) were incubated on ice for 2 hrs in 100 μL crosslinking buffer. After the incubation, the crosslinking reagent, Disuccinimidyl suberate (DSS), was added, 1 μL of 25 mM stock DSS (in DMSO) to a final concentration of 250 μM. After brief vortexing, the mixture was incubated on ice for additional 15 min.
# To analyze the crosslinked complexes using Western blot, the pellets were solubilized with 30 μL of 1×LDS buffer containing 10 mM DTT. After heating the dissolved pellets to 37° C. for 15 min, 10 μL of the sample was loaded onto 8 to 16% Tris-glycince SDS-PAGE gel. The gels were transferred to PVDF membranes by standard method for anti-PLGF or anti-Flt-1 Western blot analysis.
# WT PLGF forms dimers in its native state, and the binding models of WT PLGF with hsFlt-1 were established. A PLGF C59A monomer binding with Flt-1 receptor monomer is also found. The binding complexes, WT PLGF-hsFlt-1 and PLGF C59A-hsFlt-1, were crosslinked by DSS through amine groups on the surface of PLGF or hsFlt-1 molecules. After separating on SDS-PAGE, PLGF-containing or Flt-1 containing binding complexes were detected on Western blot by anti-PLGF or anti-Flt-1 antibodies.
protein,measurement,value
B1,binding result,no binding
